{"source": "patent US9695228B2", "about": "“EGFR and c-Met fibronectin type III domain binding molecules” (Janssen Biotech, Inc., priority 2012, dated 2017)", "molecules": {"B1": {"name": "ECB18: bispecific linked to albumin binding domain, SEQ ID NO: 118; high EGFR / medium c-Met affinity (protein)", "chain": "MLPAPKNLVVSEVTEDSARLSWDDPWAFYESFLIQYQESEKVGEAIVLTVPGSERSYDLTGLKPGTEYTVSIYGVHNVYKDTNMRGLPLSAIFTTAPAPAPAPAPLPAPKNLVVSRVTEDSARLSWTAPDAAFDSFWIRYDEVVVGGEAIVLTVPGSERSYDLTGLKPGTEYYVNILGVKGGSISVPLSAIFTTAPAPAPAPAPLAEAKVLANRELDKYGVSDYYKNLINNAKTVEGVKALLDEILAALP", "modifications": "Bispecific EGFR/c-Met binding molecule"}, "B2": {"name": "ECB38: bispecific linked to albumin binding domain, SEQ ID NO: 120; high EGFR / high c-Met affinity; test article of Tables 14-16 (protein)", "chain": "B1 chain with D141F, V143F, V144L, V145G, G146S, Y173V, L177M, S183K, V186P", "modifications": "Bispecific EGFR/c-Met binding molecule"}, "B3": {"name": "P114AR7P95-F10: c-Met-binding FN3 domain, SEQ ID NO: 47 (protein)", "chain": "LPAPKNLVVSRVTEDSARLSWTAPDAAFDSFWIRYFEFTTAGEAIVLTVPGSERSYDLTGLKPGTEYVVNIMGVKGGSISPPLSAIFTT", "modifications": "c-Met binding FN3 domain"}, "B4": {"name": "P114AR7P95-G7: c-Met-binding FN3 domain, SEQ ID NO: 48 (protein)", "chain": "B3 chain with F38L, T39L, T40S, A41T", "modifications": "c-Met binding FN3 domain"}, "B5": {"name": "P114AR7P92-F6: c-Met-binding FN3 domain, SEQ ID NO: 35 (protein)", "chain": "B3 chain with T39L, T40G, A41S, M72L, S78G, I79L, P81V", "modifications": "c-Met binding FN3 domain"}, "B6": {"name": "P114AR7P95-H8: c-Met-binding FN3 domain, SEQ ID NO: 49 (protein)", "chain": "B3 chain with T39V, T40S, A41K", "modifications": "c-Met binding FN3 domain"}, "B7": {"name": "P114AR5P74-A5: c-Met-binding FN3 domain, SEQ ID NO: 32 (protein)", "chain": "B3 chain with F36D, F38V, T39V, T40V, A41G, V68Y, M72L, P81V", "modifications": "c-Met binding FN3 domain"}, "B8": {"name": "ECB39: bispecific linked to albumin binding domain, SEQ ID NO: 121; medium EGFR / high c-Met affinity (protein)", "chain": "MLPAPKNLVVSEVTEDSARLSWADPHGFYDSFLIQYQESEKVGEAIVLTVPGSERSYDLTGLKPGTEYTVSIYGVHNVYKDTNMRGLPLSAIFTTAPAPAPAPAPLPAPKNLVVSRVTEDSARLSWTAPDAAFDSFWIRYFEFLGSGEAIVLTVPGSERSYDLTGLKPGTEYVVNIMGVKGGKISPPLSAIFTTAPAPAPAPAPLAEAKVLANRELDKYGVSDYYKNLINNAKTVEGVKALLDEILAALP", "modifications": "Bispecific EGFR/c-Met binding molecule"}, "B9": {"name": "ECB15: bispecific, SEQ ID NO: 57 (145 in Table 19): P54AR4-83v2-(AP)5-P114AR7P94-A3 (protein)", "chain": "MLPAPKNLVVSEVTEDSARLSWDDPWAFYESFLIQYQESEKVGEAIVLTVPGSERSYDLTGLKPGTEYTVSIYGVHNVYKDTNMRGLPLSAIFTTAPAPAPAPAPLPAPKNLVVSRVTEDSARLSWTAPDAAFDSFWIRYFEFLGSGEAIVLTVPGSERSYDLTGLKPGTEYVVNIMGVKGGKISPPLSAIFTT", "modifications": "bispecific EGFR/cMet binding molecule"}}, "key": {"[1]": {"system": "NCI-H292 cells expressing human HGF, xenograft", "assay": "Tumor efficacy study with bispecific molecules of variable affinity, H292-HGF xenograft", "format": "in vivo, mice", "settings": "25 mg/kg three times per week, FIG. 8", "experimental": "One week after implantation, mice were stratified into groups with equivalent tumor volumes (mean tumor volume=77.9+/−1.7 mm^3). Mice were dosed three times per week with the bispecific molecules and tumor volumes were recorded twice weekly."}, "[2]": {"system": "H292-HGF human lung cancer xenograft", "format": "in vivo", "method": "The H292-HGF cells were maintained in vitro in RPMI1640 medium supplemented with fetal bovine serum (10% v/v), and L-glutamine (2 mM) at 37° C. in an atmosphere of 5% CO2 in air. The cells were routinely subcultured twice weekly by trypsin-EDTA treatment. The cells growing in an exponential growth phase were harvested and counted for tumor inoculation.\nEach mouse was inoculated subcutaneously at the right flank region with H292-HGF tumor cells (2×10^6) in 0.1 ml of PBS with cultrex (1:1) for tumor development. The treatments were started when the mean tumor size reached 139 mm^3. […] The date of tumor cell inoculation was denoted as day 0.\nBefore commencement of treatment, all animals were weighed and the tumor volumes were measured. Since the tumor volume can affect the effectiveness of any given treatment, mice were assigned into groups using randomized block design based upon their tumor volumes. […] The randomized block design was used to assign experimental animals to groups. First, the experimental animals were divided into homogeneous blocks according to their initial tumor volume. Secondly, within each block, randomization of experimental animals to treatments was conducted.\nAt the time of routine monitoring, the animals were checked for any effects of tumor growth and treatments on normal behavior, such as mobility, visual estimation of food and water consumption, body weight gain/loss (body weights were measured twice weekly), eye/hair matting and any other abnormal effect.\nThe endpoint was whether tumor growth can be delayed or tumor bearing mice can be cured. Tumor size was measured twice weekly in two dimensions using a caliper, and the volume was expressed in mm^3 using the formula: V=0.5 a×b^2 where a and b are the long and short diameters of the tumor, respectively. The tumor size was then used for calculations of both T-C and T/C values. T-C was calculated with T as the time (in days) required for the mean tumor size of the treatment group to reach 1000 mm^3, and C was the time (in days) for the mean tumor size of the control group to reach the same size. The T/C value (in percent) was an indication of antitumor efficacy; T and C were the mean tumor volume of the treated and control groups, respectively, on a given day. Complete tumor regression (CR) is defined as tumors that are reduced to below the limit of palpation (62.5 mm^3). Partial tumor regression (PR) is defined as tumors that are reduced from initial tumor volume. A minimum duration of CR or PR in 3 or more successive tumor measurements is required for a CP or PR to be considered durable.\nAnimals for which the body weight loss exceeded 20%, or for which the mean tumor size of the group exceeds 2000 mm^3 were euthanized. The study was terminated after two weeks of observation after the final dose.\nStatistical analyses of difference in tumor volume among the groups were evaluated using a one-way ANOVA followed by individual comparisons using Games-Howell (equal variance not assumed). All data were analyzed using SPSS 18.0. p<0.05 was considered to be statistically significant."}, "[3]": {"assay": "Differential scanning calorimetry in PBS (thermal stability)", "format": "physicochemical", "settings": "DSC in PBS, c-Met-binding FN3 domains"}, "[4]": {"target": "T1, c-Met-Fc fusion protein (Homo sapiens, UniProt P08581)", "T1 construct": "recombinant EGFR and/or c-Met extracellular domain was further analyzed by surface Plasmon resonance", "T1 sequence (P08581 25-932 limits assumed)": "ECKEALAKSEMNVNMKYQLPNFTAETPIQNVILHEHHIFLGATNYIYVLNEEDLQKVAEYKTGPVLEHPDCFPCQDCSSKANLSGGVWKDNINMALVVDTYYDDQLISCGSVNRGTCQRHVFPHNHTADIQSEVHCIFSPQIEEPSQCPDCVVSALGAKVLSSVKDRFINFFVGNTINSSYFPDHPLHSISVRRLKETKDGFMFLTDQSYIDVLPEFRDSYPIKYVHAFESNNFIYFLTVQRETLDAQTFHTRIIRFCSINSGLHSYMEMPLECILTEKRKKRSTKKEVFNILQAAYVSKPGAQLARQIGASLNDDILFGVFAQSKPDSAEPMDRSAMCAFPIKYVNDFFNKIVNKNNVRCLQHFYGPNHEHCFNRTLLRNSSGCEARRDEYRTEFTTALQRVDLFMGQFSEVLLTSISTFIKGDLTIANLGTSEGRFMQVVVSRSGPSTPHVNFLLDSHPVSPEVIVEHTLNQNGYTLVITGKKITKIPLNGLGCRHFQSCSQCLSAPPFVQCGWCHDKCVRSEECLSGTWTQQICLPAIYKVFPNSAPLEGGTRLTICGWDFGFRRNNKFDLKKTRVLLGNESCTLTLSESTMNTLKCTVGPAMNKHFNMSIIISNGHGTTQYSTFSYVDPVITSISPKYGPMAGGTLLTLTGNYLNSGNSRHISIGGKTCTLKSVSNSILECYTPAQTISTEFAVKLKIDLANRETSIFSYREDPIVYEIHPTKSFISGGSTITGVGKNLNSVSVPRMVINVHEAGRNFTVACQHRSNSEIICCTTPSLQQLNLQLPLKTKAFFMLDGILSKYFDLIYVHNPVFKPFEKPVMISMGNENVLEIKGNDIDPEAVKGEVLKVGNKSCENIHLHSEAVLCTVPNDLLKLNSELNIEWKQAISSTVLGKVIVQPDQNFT", "assay": "c-Met-Fc affinity by surface plasmon resonance (ProteOn)", "format": "binding", "settings": "serine mutants of A3 in the context of ECB15, SPR"}, "[5]": {"system": "NCI-H1975 cell line", "assay": "Inhibition of growth of NCI-H1975 cell line (EGFR L858R; T790M)", "format": "cell-based, human", "settings": "NCI-H1975, mutation T790M", "experimental": "Inhibition of human tumor cell growth was assessed in standard attachment culture as described in Examples 3 or 6, or in low attachment conditions."}}, "note": "Substitutions are numbered along the chain they refer to. “And” between values parts separate entries of the source, which are not always exact repeats. Equal values may be shown once. “Also recorded” adds a separate entry of the source. Read-outs that look alike come from different tables or passages of the source.", "data": [{"molecule": "B1", "values": [{"measurement": "tumor growth inhibition (in words)", "setting": "[1]", "result": "delay in tumor growth"}]}, {"molecule": "B2", "values": [{"measurement": "treatment tolerated", "setting": "[2]; 25 mg/kg, 3 times/week x 3 weeks", "result": "7 out of 10"}, {"measurement": "Tumor volume", "setting": "[2]; day 7 (start of treatment), mean ± SEM, doses as in column head", "result": "137 ± 7", "unit": "mm^3"}, {"measurement": "Tumor volume", "setting": "[2]; day 9, mean ± SEM", "result": "142 ± 7", "unit": "mm^3"}, {"measurement": "Tumor volume", "setting": "[2]; day 13, mean ± SEM", "result": "83 ± 6", "unit": "mm^3"}, {"measurement": "Tumor volume", "setting": "[2]; day 16, mean ± SEM", "result": "44 ± 7", "unit": "mm^3"}, {"measurement": "Tumor volume", "setting": "[2]; day 20, mean ± SEM", "result": "30 ± 6", "unit": "mm^3"}, {"measurement": "Tumor volume", "setting": "[2]; day 23, mean ± SEM", "result": "23 ± 7", "unit": "mm^3"}, {"measurement": "Tumor Size at day 23", "setting": "[2]; day 23 after tumor inoculation, doses given with treatment, listed as bispecific EGFR/c-Met molecule", "result": "23 mm^3 and 23 ± 7 mm^3"}, {"measurement": "Tumor volume", "setting": "[2]; day 27, mean ± SEM", "result": "21 ± 5", "unit": "mm^3"}, {"measurement": "Tumor volume", "setting": "[2]; day 30, mean ± SEM", "result": "23 ± 6", "unit": "mm^3"}, {"measurement": "antitumor activity (in words)", "setting": "[2]; doses as in Table 14, listed as bispecific EGFR/c-Met molecule", "result": "complete tumor regression (CR) in all mice; also recorded: complete response"}, {"measurement": "mice euthanized when BWL>20% during the treatment period", "setting": "[2]; mouse, in vivo", "result": 3, "unit": "mice"}, {"measurement": "tolerability / body weight loss (in words)", "setting": "[2]; mouse, in vivo", "result": "Slight toxicity"}, {"measurement": "tumor growth inhibition (in words)", "setting": "[1]", "result": "showed the most efficacy"}]}, {"molecule": "B3", "values": [{"measurement": "Thermal Stability (Tm)", "setting": "[3]", "result": 85.2, "unit": "C."}]}, {"molecule": "B4", "values": [{"measurement": "Thermal Stability (Tm)", "setting": "[3]", "result": 87.2, "unit": "C."}]}, {"molecule": "B5", "values": [{"measurement": "Thermal Stability (Tm)", "setting": "[3]", "result": 76.8, "unit": "C."}]}, {"molecule": "B6", "values": [{"measurement": "Thermal Stability (Tm)", "setting": "[3]", "result": 83, "unit": "C."}]}, {"molecule": "B7", "values": [{"measurement": "Thermal Stability (Tm)", "setting": "[3]", "result": 74.1, "unit": "C."}]}, {"molecule": "B8", "values": [{"measurement": "tumor growth inhibition (in words)", "setting": "[1]", "result": "showed the most efficacy"}]}, {"molecule": "B9", "values": [{"measurement": "ka", "setting": "[4]", "result": 351000, "unit": "M⁻¹ s⁻¹"}, {"measurement": "kd", "setting": "[4]", "result": 0.000133, "unit": "s⁻¹"}, {"measurement": "inhibition of growth (in words)", "setting": "[5]", "result": "inhibited growth of NCI-H1975 cell line"}]}]}
